Source: patent US20100129369A1 (Eli Lilly, published 2010)

Columns and labels:
Rat c-Met-Flis-Fc ECD = target: T1, Rat c-Met-Flis-Fc ECD (rat); test: SPR (Biacore), antibody captured
T1 construct: also called Rat cMet-ECD-Fc-Flis; rat c-Met ECD
Procedure: A Biacore® 2000 instrument is used to measure the binding kinetics of c-Met antibodies to human, cynomolgus monkey, and rat c-Met ECDs. Measurements are performed at 25° C. Samples are dissolved in HBS-EP buffer (150 mM sodium chloride, 3 mM EDTA, 0.005% (w/v) surfactant P-20, and 10 mM N-2-hydroxyethylpiperazine-N′-2-ethanesulfonic acid (HEPES) at pH 7.4; #BR-1001-88).
Binding is evaluated using multiple cycles. Each cycle is performed at a flow rate of 50 μL/min., and consists of the following steps: injection of about 10 μL of a c-Met antibody at 10 μg/mL aiming at a capture of 40-100 RUs, injection of 250 μL of human, cynomolgus, or rat c-Met-Flis-Fc ECD (starting at 100 nM and using two-fold serial dilutions for each cycle) followed by 20 min. for dissociation, and regeneration using about 30 μL of 10 mM glycine hydrochloride, pH 1.5. Association and dissociation rates for each cycle are evaluated using a “1:1 (Langmuir) binding” model in the BIAevaluation software, version 4.1.

RON-ECD-Fc = target: T2, RON-ECD-Fc (human, UniProt Q04912 25-957); test: ELISA, coated ECD-Fc, antibody 0.002 ng/mL
T2 construct: extracellular domain; Bought reagent; not shown: Fc part of the bought fusion
T2 sequence (looked up): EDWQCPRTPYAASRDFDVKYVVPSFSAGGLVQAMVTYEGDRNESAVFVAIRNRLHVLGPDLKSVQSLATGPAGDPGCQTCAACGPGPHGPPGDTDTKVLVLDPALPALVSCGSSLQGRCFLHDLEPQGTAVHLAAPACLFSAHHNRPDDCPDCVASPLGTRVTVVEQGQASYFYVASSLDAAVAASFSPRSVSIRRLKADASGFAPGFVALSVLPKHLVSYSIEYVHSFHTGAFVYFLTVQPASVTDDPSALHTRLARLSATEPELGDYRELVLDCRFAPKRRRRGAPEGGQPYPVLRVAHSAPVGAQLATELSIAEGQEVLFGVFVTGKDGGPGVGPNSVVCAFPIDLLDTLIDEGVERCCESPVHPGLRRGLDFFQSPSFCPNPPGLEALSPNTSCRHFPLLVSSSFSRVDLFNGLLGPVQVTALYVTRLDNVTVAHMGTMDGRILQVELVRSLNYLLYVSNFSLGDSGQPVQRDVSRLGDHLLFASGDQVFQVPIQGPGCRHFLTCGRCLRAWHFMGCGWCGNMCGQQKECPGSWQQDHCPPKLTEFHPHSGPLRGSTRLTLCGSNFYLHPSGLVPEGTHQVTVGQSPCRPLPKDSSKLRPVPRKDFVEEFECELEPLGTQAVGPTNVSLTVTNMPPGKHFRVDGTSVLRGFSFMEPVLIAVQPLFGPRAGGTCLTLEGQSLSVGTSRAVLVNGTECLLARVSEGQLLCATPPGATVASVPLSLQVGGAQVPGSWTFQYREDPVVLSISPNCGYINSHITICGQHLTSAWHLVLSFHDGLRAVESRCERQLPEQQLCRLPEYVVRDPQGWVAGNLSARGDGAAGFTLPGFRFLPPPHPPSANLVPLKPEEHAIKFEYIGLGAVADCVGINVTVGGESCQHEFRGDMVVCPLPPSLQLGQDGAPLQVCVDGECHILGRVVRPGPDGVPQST

T1 sequence (chain, as listed by the source limits assumed): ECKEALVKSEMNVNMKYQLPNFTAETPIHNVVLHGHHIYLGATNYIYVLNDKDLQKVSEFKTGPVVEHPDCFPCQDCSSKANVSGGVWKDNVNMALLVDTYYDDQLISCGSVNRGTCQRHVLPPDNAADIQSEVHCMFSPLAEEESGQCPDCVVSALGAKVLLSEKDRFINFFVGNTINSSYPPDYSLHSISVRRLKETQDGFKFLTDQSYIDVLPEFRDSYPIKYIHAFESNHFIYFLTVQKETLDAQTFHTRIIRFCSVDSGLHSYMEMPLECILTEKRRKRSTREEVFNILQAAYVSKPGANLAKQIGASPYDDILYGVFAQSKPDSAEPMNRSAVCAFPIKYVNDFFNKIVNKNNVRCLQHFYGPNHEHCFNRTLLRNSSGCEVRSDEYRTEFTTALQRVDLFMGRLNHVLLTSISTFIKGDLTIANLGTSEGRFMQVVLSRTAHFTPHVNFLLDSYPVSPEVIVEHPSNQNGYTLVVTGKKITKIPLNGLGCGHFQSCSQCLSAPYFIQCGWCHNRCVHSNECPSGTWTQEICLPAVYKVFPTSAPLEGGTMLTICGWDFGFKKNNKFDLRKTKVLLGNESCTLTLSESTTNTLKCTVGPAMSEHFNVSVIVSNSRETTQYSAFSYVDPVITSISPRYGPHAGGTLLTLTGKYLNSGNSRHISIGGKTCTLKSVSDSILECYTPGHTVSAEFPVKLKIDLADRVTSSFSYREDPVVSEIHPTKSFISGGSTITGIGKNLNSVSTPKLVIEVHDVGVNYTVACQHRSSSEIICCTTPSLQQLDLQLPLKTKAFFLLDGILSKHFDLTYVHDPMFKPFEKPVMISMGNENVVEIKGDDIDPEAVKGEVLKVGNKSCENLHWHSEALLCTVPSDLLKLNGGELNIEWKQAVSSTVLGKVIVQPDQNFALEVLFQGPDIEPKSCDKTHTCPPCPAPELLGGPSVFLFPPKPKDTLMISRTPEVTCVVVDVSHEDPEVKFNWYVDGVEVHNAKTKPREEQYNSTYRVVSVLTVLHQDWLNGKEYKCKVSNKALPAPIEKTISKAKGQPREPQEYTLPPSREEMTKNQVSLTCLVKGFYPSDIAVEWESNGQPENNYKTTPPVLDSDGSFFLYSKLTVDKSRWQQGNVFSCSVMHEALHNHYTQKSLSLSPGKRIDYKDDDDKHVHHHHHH

binding result (Rat c-Met-Flis-Fc ECD): no binding | Average A450 nm (RON-ECD-Fc): 0.106 A450 nm
B1: C8-6 (antibody, human IgG2, kappa, V domains shown)
VH: QVQLVQSGAEVKKPGASVKVSCKASGYTFTDYYMHWVRQAPGQGLEWMGRVNPNRGGTTYNQKFEGRVTMTTDTSTSTAYMELRSLRSDDTAVYYCARTNWLDYWGQGTTVTVSS
VL: DIQMTQSPSSLSASVGDRVTITCSVSSSVSSIYLHWYQQKPGKAPKLLIYSTSNLASGVPSRFSGSGSGTDFTLTISSLQPEDFATYYCIQYSGYPLTFGGGTKVEIKR
notes: Called IgG4, kappa; also called Mab C8-6
